This note sets out measurements from the RNAGym collection of RNA variant scans (doi:10.7554/elife.90254).

B1: LINE1-full (parent)
chain: UACGUAGGUGGUUUUCCCCUGAUAGUGCUAAGGGGGCCUGGAAGUUUGGACUGGGCAGAGCUCAACACAGCGUGGCAAAGUGGCUGUGGCUAGACUGCCUCUCUGGAUUCCUCGUCACUCAGCAGGGCAUCUCUGAGAGAAAUGCC

Variants of B1 are the subject of the series. Put plainly: self-cleavage, relative activity (ratio to wild type); higher = more cleavage; in vitro, sequencing; the parent is a self-cleaving ribozyme.
Turning to U100C G127U, the self-cleavage was 1.84.
In the case of U100C G127A, the self-cleavage came to 1.9.
As for U102C G144A, the self-cleavage was 1.15.
Turning to U102C G144C, the self-cleavage is 1.17.
Turning to A107U G144A, the self-cleavage worked out at 1.79.
For A107U A124G the value was 1.29; for A107U A124U, 1.61.
Regarding U104C C123A, the self-cleavage stood at 1.73.
As for U109A C145G, the self-cleavage turned out to be 0.98.
Consider G106A G135U, for which the self-cleavage amounted to 1.88.
For the variant G106U U132C, the self-cleavage worked out at 1.31.
C103U A140G: the self-cleavage was determined as 1.44.
U108C G139A: the self-cleavage came out at 0.
In the case of A107G A117C, the self-cleavage was determined as 0.66.
A107G A117G: the self-cleavage was determined as 1.85.
In the case of A107G A117U, the self-cleavage worked out at 1.85.
For U102C A136G the value was 1.34; for A107G U134C, 1.33; for A107G U134A, 1.45.
Take A107U A117C: the self-cleavage stood at 2.32.
With U104G U132A, the self-cleavage was determined as 1.06.
The value for C103A U130C was 1.9; that for G106A U112A was 1.64; that for G105U U108C was 1.98.
For G105U U108A, the self-cleavage came out at 1.12.
The value for C101A U134G was 1.8.
For U104A U143A the value was 0.88; for A107G U132C, 1.62.
For A107G A136G the value was 1.31; for U100C U109C, 1.37; for U100C U109A, 1.77.
As to U100C C131U, the self-cleavage was 2.27.
U100C C131G: the self-cleavage is 2.35.
For U108C U119A the value was 1.53.
For C101A U115A the value was 1.36; for U102A A129G, 1.72; for A107G A124U, 1.27.
The value for A107G U109A was 1.83; that for U108C A138U was 1.68; that for U100C U132A was 2.37.
As to U108C A129G, the self-cleavage turned out to be 1.57.
As to U108C A129C, the self-cleavage was 1.69.
The value for U108C A129U was 1.89; that for C101U U130C was 1.54; that for U100C U130G was 1.02.
Take U100C U130A: the self-cleavage was found to be 1.85.
With U108C C118U, the self-cleavage was found to be 2.01.
For C101U U132A, the self-cleavage worked out at 2.01.
The value for U108G U134C was 2.7; that for U100G A138G was 1.27.
The value for U104A U108C was 1.14; that for U109A G139A was 1.49.
With U104A A129G, the self-cleavage amounted to 1.27.
For U100C C123U the value was 2.06; for C103A A138G, 1.6.
For A107G A129U the value was 1.84; for U108A A129U, 1.92.
As for C101U G114A, the self-cleavage is 1.37.
Turning to U100A U119A, the self-cleavage is 0.71.
For U100C U112A the value was 1.74; for U104C A124G, 2.57; for A107U A140G, 1.58.
The value for U102C G122U was 1.63; that for G106U A129G was 0.98; that for U102C G114U was 1.62.
For U102C G114A the value was 1.21.
With U102A G114A, the self-cleavage was 1.57.
The value for C103A A129G was 1.59; that for U102C C118U was 1.59.
The value for U100A U130C was 2.57; that for U100G U130C was 2.21; that for A107C U143C was 1.67.
The value for U100G U119C was 2.45; that for U109A U112A was 1.35.
With U109A U112C, the self-cleavage was 1.08.
Take U104C U115A: the self-cleavage was 0.22.
Consider U108A C133A, for which the self-cleavage is 1.42.
The value for U100G A136G was 0.59.
On to U102C A124G, for which the self-cleavage was 1.11.
The value for G105A U134C was 1.44; that for G105A U134A was 1.54.
For A107U C113A the value was 1.68; for U108G U143C, 1.14.
For the variant G105U U109C, the self-cleavage was 1.93.
On to C103A A140G, for which the self-cleavage was found to be 1.23.
The value for U108A G114A was 1.09; that for A107G U112A was 1.45.
The value for A107G U112C was 1.68.
As for A107C U108A, the self-cleavage amounted to 1.36.
Consider U108A U112C, for which the self-cleavage is 2.53.
The value for G106A U115C was 1.43.
On to G105U A140U, for which the self-cleavage was 1.53.
With A107G U108A, the self-cleavage came out at 1.47.
For A107G U108G the value was 1.53.
Turning to U104C U108A, the self-cleavage was found to be 2.04.
The value for U102C G106A was 1.19; that for G105U G144A was 1.31.
As for U104C G144A, the self-cleavage worked out at 2.03.
The value for U104C A136G was 1.62.
Take U102C G125U: the self-cleavage came to 1.23.
The value for A107G A138U was 1.44.
On to U102A A121U, for which the self-cleavage came to 1.44.
On to U102A G127A, for which the self-cleavage is 1.08.
For U102C U104G the value was 1.6.
For U102C U104C the value was 0.95.
Take C103U U119C: the self-cleavage is 1.7.
The value for U102C G137A was 1.8.
For the variant U102C A107U, the self-cleavage is 0.42.
As to U102C A107G, the self-cleavage was determined as 1.67.
As to A107G A142G, the self-cleavage was 1.83.
For U102C C128U the value was 1.67.
For U102C C128A the value was 0.39; for U109A G122A, 1.63; for U108C U115A, 1.86.
For U104C G127A the value was 1.47; for U100C A124U, 2.22; for U100C A124G, 1.32.
Take G106A U109C: the self-cleavage came out at 1.86.
For U100A U132A the value was 0.31; for G106A A142U, 1.29.
In the case of U100G A142G, the self-cleavage stood at 1.01.
For G105A A117U the value was 1.74.
For G105A A117G, the self-cleavage is 1.59.
The value for G105A A142G was 1.24.
For G106U G126A the value was 1.15; for G105A G127U, 1.31; for U102A G105U, 1.09.
With C103U A107U, the self-cleavage was 1.2.
The value for U102C A121U was 2.05; that for U109A was 1.31.
The value for U102C C120A was 2.26; that for U102C C120U was 1.71; that for U102C C116U was 1.72.
For C103U A117C the value was 2.49.
As for C103U A117G, the self-cleavage was determined as 1.41.
In the case of C103A G135A, the self-cleavage was found to be 0.87.
As for U104A U134C, the self-cleavage turned out to be 1.53.
Take U104A U134A: the self-cleavage is 1.35.
For C103U A138G the value was 1.49.
For the variant C103U A138U, the self-cleavage was found to be 1.07.
Take U108C A117U: the self-cleavage was 1.83.
As for U102A A142G, the self-cleavage worked out at 1.9.
For U104A G122C the value was 1.48.
Turning to A107U U112C, the self-cleavage turned out to be 1.84.
Consider U108A U115A, for which the self-cleavage is 0.6.
Regarding U108G, the self-cleavage was found to be 1.5.
U108A: the self-cleavage came to 1.24.
As to U108C, the self-cleavage was 1.64.
Take U108A U134C: the self-cleavage amounted to 1.19.
With U104A C146U, the self-cleavage was determined as 1.35.
For C103A U112G the value was 0.72; for C103A U112C, 1.01.
Regarding U100C A142C, the self-cleavage amounted to 2.2.
Take U100C G126C: the self-cleavage came out at 2.64.
The value for U108C G126A was 2.16; that for U109A A140G was 0.96.
For U104C A138U the value was 1.87; for U104C A138G, 1.87; for U104C A129U, 1.73.
With U104C A129G, the self-cleavage is 2.04.
For C101U U102G the value was 0.3; for U100C A141G, 1.9; for U100C A107C, 2.87.
On to U108A A124U, for which the self-cleavage came out at 1.35.
U102C U112C: the self-cleavage was 1.53.
For U102C U112A, the self-cleavage was determined as 1.44.
The value for U102C U112G was 1.15.
